Paper PMC4714923 (Biochemistry, 2015)
Where no end group is shown, it is not given here. 5‑Fam = 5-carboxyfluorescein; Ahx = NCCCCCC(=O)O

T1: Human FKBP52 (52-kDa FK506-binding protein) (human, UniProt Q02790 1-459)
T1 sequence (looked up): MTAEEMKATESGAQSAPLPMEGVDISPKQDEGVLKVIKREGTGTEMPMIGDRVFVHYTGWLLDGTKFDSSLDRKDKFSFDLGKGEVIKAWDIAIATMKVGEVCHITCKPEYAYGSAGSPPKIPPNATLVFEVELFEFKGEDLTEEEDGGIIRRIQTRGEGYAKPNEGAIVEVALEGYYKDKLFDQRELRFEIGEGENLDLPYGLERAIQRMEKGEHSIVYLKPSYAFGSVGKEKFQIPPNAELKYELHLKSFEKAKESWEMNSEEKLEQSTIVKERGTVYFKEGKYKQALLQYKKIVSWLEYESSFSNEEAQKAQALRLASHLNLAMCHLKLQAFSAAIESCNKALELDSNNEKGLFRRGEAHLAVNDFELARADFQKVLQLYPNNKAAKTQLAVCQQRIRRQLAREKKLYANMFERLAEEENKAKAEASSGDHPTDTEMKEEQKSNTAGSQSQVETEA

T2: Human FKBP51 (51-kDa FK506-binding protein) (human, UniProt Q13451 1-457)
T2 sequence (looked up): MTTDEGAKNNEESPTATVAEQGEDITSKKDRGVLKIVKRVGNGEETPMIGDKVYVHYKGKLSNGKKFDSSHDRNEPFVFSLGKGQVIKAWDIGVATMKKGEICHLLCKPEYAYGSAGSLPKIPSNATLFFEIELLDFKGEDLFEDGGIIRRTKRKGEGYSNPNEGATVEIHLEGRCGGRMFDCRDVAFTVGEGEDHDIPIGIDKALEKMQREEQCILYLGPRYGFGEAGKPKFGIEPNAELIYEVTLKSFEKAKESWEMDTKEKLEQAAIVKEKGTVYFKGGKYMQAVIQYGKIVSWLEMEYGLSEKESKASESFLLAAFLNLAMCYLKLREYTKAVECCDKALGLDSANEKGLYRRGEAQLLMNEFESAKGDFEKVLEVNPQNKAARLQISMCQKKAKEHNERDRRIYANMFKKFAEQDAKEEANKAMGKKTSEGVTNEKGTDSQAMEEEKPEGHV

B1: Human DnaJC7 (natural protein, UniProt Q99615 1-494, looked up)
chain: MAAAAECDVVMAATEPELLDDQEAKREAETFKEQGNAYYAKKDYNEAYNYYTKAIDMCPKNASYYGNRAATLMMLGRFREALGDAQQSVRLDDSFVRGHLREGKCHLSLGNAMAACRSFQRALELDHKNAQAQQEFKNANAVMEYEKIAETDFEKRDFRKVVFCMDRALEFAPACHRFKILKAECLAMLGRYPEAQSVASDILRMDSTNADALYVRGLCLYYEDCIEKAVQFFVQALRMAPDHEKACIACRNAKALKAKKEDGNKAFKEGNYKLAYELYTEALGIDPNNIKTNAKLYCNRGTVNSKLRKLDDAIEDCTNAVKLDDTYIKAYLRRAQCYMDTEQYEEAVRDYEKVYQTEKTKEHKQLLKNAQLELKKSKRKDYYKILGVDKNASEDEIKKAYRKRALMHHPDRHSGASAEVQKEEEKKFKEVGEAFTILSDPKKKTRYDSGQDLDEEGMNMGDFDPNNIFKAFFGGPGGFSFEASGPGNFFFQFG
B2: Human CHIP (carboxyl terminus of Hsc70 interacting protein) (natural protein, UniProt Q9UNE7 1-303, looked up)
chain: MKGKEEKEGGARLGAGGGSPEKSPSAQELKEQGNRLFVGRKYPEAAACYGRAITRNPLVAVYYTNRALCYLKMQQHEQALADCRRALELDGQSVKAHFFLGQCQLEMESYDEAIANLQRAYSLAKEQRLNFGDDIPSALRIAKKKRWNSIEERRIHQESELHSYLSRLIAAERERELEECQRNHEGDEDDSHVRAQQACIEAKHDKYMADMDELFSQVDEKRKKRDIPDYLCGKISFELMREPCITPSGITYDRKDIEEHLQRVGHFDPVTRSPLTQEQLIPNLAMKEVIDAFISENGWVEDY

Legend:
Test in all cases: fluorescence polarisation
[1] = biological target: T1, Human FKBP52 (52-kDa FK506-binding …)
[2] = biological target: T2, Human FKBP51 (51-kDa FK506-binding …)
[3] = biological target: Human Hop (Hsp70/Hsp90 organizing protein) (human, UniProt P31948 1-543)
[4] = biological target: Human Hsp72 (HSPA1A), full-length (human, UniProt P0DMV8 1-641)
Human Hsp72 (HSPA1A), full-length, sequence (P0DMV8 whole entry): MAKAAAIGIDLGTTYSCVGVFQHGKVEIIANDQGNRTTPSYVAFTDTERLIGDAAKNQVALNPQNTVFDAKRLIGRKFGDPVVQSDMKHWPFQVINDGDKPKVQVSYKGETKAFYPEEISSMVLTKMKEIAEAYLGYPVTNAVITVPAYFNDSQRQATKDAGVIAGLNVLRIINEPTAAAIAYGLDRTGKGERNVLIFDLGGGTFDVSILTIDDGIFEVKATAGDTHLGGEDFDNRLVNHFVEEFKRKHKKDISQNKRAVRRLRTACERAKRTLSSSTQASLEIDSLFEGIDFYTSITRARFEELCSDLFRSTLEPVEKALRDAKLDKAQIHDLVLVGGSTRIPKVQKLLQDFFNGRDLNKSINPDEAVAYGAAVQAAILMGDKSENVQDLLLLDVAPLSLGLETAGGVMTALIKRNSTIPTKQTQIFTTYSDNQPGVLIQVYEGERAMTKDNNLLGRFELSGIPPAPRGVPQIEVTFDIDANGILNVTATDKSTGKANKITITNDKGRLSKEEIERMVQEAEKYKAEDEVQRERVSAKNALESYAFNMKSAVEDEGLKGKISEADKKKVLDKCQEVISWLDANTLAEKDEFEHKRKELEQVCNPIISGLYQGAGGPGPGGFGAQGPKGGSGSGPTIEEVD

Hop K8A = Hop K8A (human, UniProt P31948 1-543, K8A)
Hop R77A = Hop R77A (human, UniProt P31948 1-543, R77A)
[5] = biological target: B2

Binder | Kd [1] | Kd [2] | other results
{5‑Fam-Ahx}-DDTSRMEKVD [Hsp90α Lys mutant tracer (Fam-DDTSRMEKVD)] | > 25 µM | > 25 µM | 
{5‑Fam-Ahx}-DDTSRIEEVD [mutant Hsp90α tracer (Fam-DDTSRIEEVD)] | > 25 µM | > 25 µM | Kd [3]: > 25 µM
{5‑Fam-Ahx}-DDTSRMEAVD [Hsp90α Ala mutant tracer (Fam-DDTSRMEAVD)] |  | 4.63 µM | 
B1 |  |  | binding result [4]: binds
{5‑Fam-Ahx}-SSGPTIEEVD [Hsc70 C-terminal tracer (Fam-SSGPTIEEVD)] | > 75 µM | > 75 µM | Kd (Hop K8A): > 25 µM; Kd (Hop R77A): > 25 µM
{5‑Fam-Ahx}-GSGPTIEEVD [Hsp72 C-terminal tracer (Fam-GSGPTIEEVD)] | > 75 µM |  | Kd (Hop K8A): > 25 µM; Kd [5]: 0.51 µM; Kd (Hop R77A): > 25 µM
B2 |  |  | binding result [4]: binds
{5‑Fam-Ahx}-GSGPTMEEVD [chimeric mutant Hsp72 tracer (Fam-GSGPTMEEVD)] | > 75 µM | > 75 µM | 
